Laboratory results taken from US20130302399A1 (published 2013).
Like-named read-outs stand apart in the source and are kept apart here.

T1: cynomolgus monkey PCSK9 (cynomolgus monkey, UniProt A0A7N9D9N8 150-747)
T1 chain: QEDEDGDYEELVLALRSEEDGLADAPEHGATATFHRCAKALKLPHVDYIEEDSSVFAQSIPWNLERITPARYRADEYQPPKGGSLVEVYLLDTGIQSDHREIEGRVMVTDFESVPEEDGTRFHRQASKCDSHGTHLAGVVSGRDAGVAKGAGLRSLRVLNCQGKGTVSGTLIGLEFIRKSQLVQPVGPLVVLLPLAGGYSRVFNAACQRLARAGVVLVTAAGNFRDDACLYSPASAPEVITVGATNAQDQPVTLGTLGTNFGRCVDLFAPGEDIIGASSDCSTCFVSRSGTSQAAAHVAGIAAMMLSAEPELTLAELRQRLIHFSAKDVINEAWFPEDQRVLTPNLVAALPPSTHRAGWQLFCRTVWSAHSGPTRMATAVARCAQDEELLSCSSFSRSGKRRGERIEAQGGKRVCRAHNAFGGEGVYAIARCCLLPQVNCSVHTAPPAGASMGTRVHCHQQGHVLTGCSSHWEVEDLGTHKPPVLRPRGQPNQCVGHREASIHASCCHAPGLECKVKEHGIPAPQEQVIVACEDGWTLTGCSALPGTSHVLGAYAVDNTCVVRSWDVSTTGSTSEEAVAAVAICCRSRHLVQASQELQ


What was measured:
[1] = molecular target: T2, human Proprotein Convertase Subtilisin-like/Kexin type 9 (UniProt Q8NBP7 31-692); assay: ELISA
Target sequence in this assay (Q8NBP7 31-692): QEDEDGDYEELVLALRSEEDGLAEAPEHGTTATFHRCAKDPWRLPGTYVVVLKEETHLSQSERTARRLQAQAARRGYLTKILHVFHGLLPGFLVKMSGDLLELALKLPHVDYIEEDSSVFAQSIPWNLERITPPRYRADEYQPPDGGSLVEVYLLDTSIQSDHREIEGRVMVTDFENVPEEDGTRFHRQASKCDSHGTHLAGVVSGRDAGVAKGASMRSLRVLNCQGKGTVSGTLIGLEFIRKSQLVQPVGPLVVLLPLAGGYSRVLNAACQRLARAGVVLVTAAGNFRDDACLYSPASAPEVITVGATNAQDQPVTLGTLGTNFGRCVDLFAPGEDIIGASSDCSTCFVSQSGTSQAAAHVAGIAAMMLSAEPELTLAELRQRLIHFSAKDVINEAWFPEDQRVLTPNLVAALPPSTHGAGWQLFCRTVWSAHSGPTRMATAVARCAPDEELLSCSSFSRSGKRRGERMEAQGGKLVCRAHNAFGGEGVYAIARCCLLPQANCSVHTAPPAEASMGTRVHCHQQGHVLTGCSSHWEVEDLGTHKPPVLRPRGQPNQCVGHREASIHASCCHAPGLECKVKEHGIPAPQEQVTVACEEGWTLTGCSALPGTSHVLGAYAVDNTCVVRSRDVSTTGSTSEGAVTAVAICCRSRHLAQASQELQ

[2] = molecular target: T2, human Proprotein Convertase …; assay: ELISA; remark: listed apart in the source
[3] = molecular target: T2, human Proprotein Convertase …; assay: PCSK9-LDLR blocking ELISA
[4] = molecular target: T2, human Proprotein Convertase …; assay: ELISA; remark: listed apart in the source
cynomolgus monkey PCSK9 [5] = molecular target: T1, cynomolgus monkey PCSK9; assay: ELISA
cynomolgus monkey PCSK9 [6] = molecular target: T1, cynomolgus monkey PCSK9; assay: ELISA
[7] = molecular target: T2, human Proprotein Convertase …; assay: ELISA; remark: listed apart in the source

| Binder | EC50 [1] | EC50 (cynomolgus monkey PCSK9 [5]) | further results |
| --- | --- | --- | --- |
| Ab24 (antibody, V domains shown) VH: QSLEESGGDLVKPGASLTLTCKASGFSFSSGYYMCWVRQAPGKGLEWIACIYAGSGGSTFFANWAKGRFTISKTSSTTVTLQMTSLTAADTATYFCARDGGYAGYGYAFFNLWGPGTLVTVSS VL: DVVMTQTPASVSEPVGGTVTIKCQASERIYSGLAWYQQKPGQPPKLLIYGASTLASGVPSRFKGSGSGTDFTLTISDLECDDAAIYYCQATYYGSSYPNVFGGGTEVVVKR | – | – | EC50 [2]: 0.178 nM |
| Ab23 (antibody, V domains shown) VH: QSLEESGGDLVKPGASLTLTCKASGFSFSSGYYMCWVRQAPGKGLEWIACIYAGSGGSTFFANWAKGRFTISKTSSTTVTLQMTSLTAADTATYFCARDGGYAGYGYAFFNLWGPGTLVTVSS VL: DVVMTQTPASVSEPVGGTVTIKCQASERIYSGLAWYQQKPGQPPKLLIYGASTLASGVPSRFKGSGSGTDFTLTISDLECDDAAIYYCQCTYYGSSYPNVFGGGTEVVVKR | – | – | IC50 [3]: 0.81 nM |
| Ab22 (antibody, V domains shown) VH: EVQLVESGGGLVQPGGSLRLSCAASGFSLSSYAMNWVRQAPGKGLEWIGAIRSSGATFFASSVNGRFTISRDNSKNTVYLQMNSLRAEDTAVYYCARDTNDGWYINRLDLWGQGTLVTVSS VL: AVLTQSPSTLSASVGDRVTITCQSSKSVYSNYLSWFQQKPGKAPKFLIYKASTLASGVPSRFSGSGSGTEFTLTISSLQPDDFATYYCAGGDTNIADNAFGGGTKVEIKR | – | – | EC50 [4]: 0.0492 nM |
| Ab15 (antibody, V domains shown) VH: QEQLEESGGDLVKPEGSLTLTCTASGFSFSSSYWICWVRQAPGKGLEWIACIDAGNSGSTYYASWAKGRFTISKASSTTVTLQMTSLTAADTATYFCASDLNDGWLGQFNLWGPGTLVTVSS VL: NIVMTQTPSPVSGAVGGTVTIKCQASQSISDYLAWYQQKPGQPPKLLIYRASTLASGVPSRFRGSGSGTEYTLTITDLECADAATYYCQSYYSVTTNTYGNTFGGGTEVVVKR | – | – | EC50 (cynomolgus monkey PCSK9 [6]): 0.161 nM |
| Ab13 (antibody, V domains shown) VH: QSVEESGGRLVTPGTPLTLTCTVSGIDLSTYGVGWVRQAPGKGLEYIGIISSSGSTYYASWAKGRFTISKTSSTTVDLKMTSLTTEDTATYFCARDWSSTTGYYGYFNMWGPGTLVTVSS VL: AFELTQTPSPVSAAVGGTVTIKCQASQSISTALAWYQQKPGQPPKLLIYGASNLESGVPSRFSGSGSGTQFTLTISDLECADAAIYYCQSSYGSSTLAFGGGTEVVVKR | – | – | EC50 [7]: 0.124 nM |
| Ab6 (antibody, V domains shown) VH: QEQLEESGGDLVKPEGSLTLTCTASGFSFSSNYWICWVRQAPGKGLEWIGCIRDGGGTYYASWAKGRLTISMTSSTTVTLQLNSLTAADTATYFCASDINDGWLGQFNLWGPGTLVTVSS VL: DIVMTQTPASVEVAVGGTVTIKCQASQSISAYLAWYQQKPGQPPKLLIYRAYTLASGVPSRFKGSGSGTQFTLTISDLECADAATYYCQSYYSVTTNTYGNTFGGGTEVVVKR | 0.117 nM | 0.112 nM | – |
| Ab10 (antibody, V domains shown) VH: QEQLEESGGDLVKPEGSLTLTCTASGFSFSSSYWICWVRQAPGKGLEWIACIRAGGGNYYANWAKGRFTISRTSSTTVTLQMTSLTAADTATYFCASDINDGWLGQFNLWGPGTLVTVSS VL: NIVMTQTPASVEAAVGGTVTIKCQASQSISNYLAWYQQKPGQPPKLLIYRTSTLASGVPSRFKGSGSGTQFTLTISDLECADAATYYCQSYYSVTTVAYGNTFGGGTEVVVKR | – | – | EC50 [7]: 0.126 nM |
| Ab7 (antibody, V domains shown) VH: EVQLVESGGGLVQPGGSLRLSCAASGFTVSSNYWICWVRQAPGKGLEWIGCIRDGGGTYYASSAKGRFTISRDNSKNTLYLQMNSLRAEDTAVYYCASDINDGWLGQFNLWGQGTLVTVSS VL: DIVMTQSPSSLSASVGDRVTIKCQASQSISAYLAWYQQKPGKVPKLLIYRAYTLASGVPSRFSGSGSGTDFTLTISSLQPEDVATYYCQSYYSVTTNTYGNTFGGGTKVEIKR | – | 0.103 nM | EC50 [7]: 0.104 nM |

Continued, in another order:

| EC50 [1] | EC50 (cynomolgus monkey PCSK9 [5]) | Binder | further results |
| --- | --- | --- | --- |
| 0.098 nM | – | Ab9 (antibody, V domains shown) VH: QSVEESGGRLVTPGTPLTLTCTVSGIDLSSYAMGWVRQAPGKGLEYIGIIVSYGPTYYASWAKGRFTISKTSTTVDLKITSPTAEDTATYFCARDLDANSSGYYGCFNIWGQGTLVTVSS VL: AVVLTQTPASVSAAVGGTVTIKCQASQSISTALAWYQQKPGQPPKLLIYAASPLASGVSSRFKSSGSGTEFTLTISDLECADAATYYCQSYYGSSNIAFGGGTELEILR | – |
| 0.0874 nM | 0.106 nM | Ab8 (antibody, V domains shown) VH: QEQLVESGGGLVQPEGSLTLTCTASGFSFTSDYYMCWVRQAPGKGLEWIGCISTGDGSTYYASWAKGRFTISKPSSTTVTLQMTRLTAADTATYFCARDRYYSYAYGAYVYASDLWGPGTLVTVSS VL: DIVMTQTPASVSEPVGGTVTINCQASESIRNYLSWYQQKPGQRPKLLIYGASTLASGVPSRFKGSGSGTDFTLTISDLECADAATYYCQSNYGISSRSYVNGFGGGTEVVVKR | – |
| 0.116 nM | 0.169 nM | Ab5 (antibody, V domains shown) VH: QSVEESGGRLVTPGTPLTLTCTVSGFSLSSYAMSWVRQAPGKGLEWIGIISNSGTTYYASWAKGRFTISKTSTTVDLKITSPTTEDTATYFCARGIYWYWRVFNLWGPGTLVTVSS VL: AVLTQTPSPVSAAVGGTVTINCQASQSVYNNLLSWYQQKPGQPPKLLIYDASNLASGVPDRFSGSGSGTQFTLTISGVQCDDAATYYCLGGYDDDADNAFGGGTEVVVKR | – |
